The record followed here is article doi:10.1101/2025.11.15.688601, “A multiplexed approach for genetic screening of human cells by electron microscopy uncovers a critical effector of mitochondrial cristae shape” (bioRxiv, 2025).

This data set deals with the molecule itself. Put plainly: SEC-MALS; about 10 mg/ml applied to Superdex 200 Increase 10/300 in PBS; DAWN HELEOS and Optilab T-rEX detectors.

B1: Recombinant MISHA/FAM136A (sample of the SEC-MALS analysis) (natural protein)
chain: not shown
notes: human FAM136A/MISHA, Uniprot Q96C01, printed as 138 amino acids (the whole entry); tag removed before the assay; Applied at about 10 mg/ml; also called Mitochondrial-IMS membrane-SHApe-impacting protein; source: E. coli SHuffle, purified; tag cleaved in both
In the case of B1, the stoichiometry N – broadly, the number of molecules, sites or subunits per partner or assembly – amounted to 2.
